The record followed here is IntAct's records for PubMed 17053789.

Sequences and labels used below:
B1: Protection of telomeres protein 1 (Mus musculus), Q91WC1 (parent)
chain: MSLVSTAPYTYTPLNLLKEGTIANVYGVVKFFKPPYVSKGTDYCSVVTIVDQTNVKLTCMLFSGNYEALPIIYKVGDIVRFHRLKIQVYKNELQGINCSGFASLTFEGTVGMPVTARTSSKVFSFTPQDQKMVEALRVWASKHISASSTLVQLCDAQPMQYYDLTCQLLGKAQVDSTAFLLKVWDGTQTVLPSWRVSTQDLTFEGDLSHIERLQSLVVDILVYDNHVQVARSIEVGCFLRLYSLHTKLQPGNSETSSSESLRLEFHLHGGTSYGRGIRVLPDTSPCVDQLKKALEGANLPVTETSTGICQSENGDSSALSNSGSGAVSPYEEERCQQVSATILTNHQHLEKTPLCAILTQKAPQQYRVRAKLRSYLPRRLSQSVKLLCPKCHSVQEVPHGDSLDKILQDAATEAPDIKLKATSLYYSKVWTTEDQGGRQVAVHFVKNNGILPASSECLILIEGGRLCEVSKLSSKFHSVMPVRSGPESLELLTLSAPFLIQGKVHHYGCKQCSSLKPIQNLNSRFHKGPWTPSSVAEALGVVPLQYVFVMVFTLDDGTGVLEAYLKDSEHFFKIPASEVLTDDDLQRSLETIMDMICPPGIKVDAYPWLECLLKSYNVTIGTERRICYQIFDTTVAENVV
partner: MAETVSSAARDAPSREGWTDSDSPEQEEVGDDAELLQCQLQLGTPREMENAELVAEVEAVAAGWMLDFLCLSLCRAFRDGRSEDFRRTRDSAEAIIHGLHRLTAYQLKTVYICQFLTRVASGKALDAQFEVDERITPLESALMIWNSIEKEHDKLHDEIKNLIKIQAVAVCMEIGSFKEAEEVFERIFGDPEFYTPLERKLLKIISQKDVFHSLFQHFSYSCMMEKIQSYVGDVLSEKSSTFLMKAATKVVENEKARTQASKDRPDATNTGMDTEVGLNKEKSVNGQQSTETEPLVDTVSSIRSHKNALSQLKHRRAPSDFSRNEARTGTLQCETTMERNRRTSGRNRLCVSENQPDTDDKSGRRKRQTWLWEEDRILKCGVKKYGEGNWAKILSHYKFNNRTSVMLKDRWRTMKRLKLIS

The variants in the assay derive from B1. To be noted: with terf1_mouse Terf1, P70371.
With Y223A, the “effect of a mutation on the interaction” value was “disrupting interaction”.
